Measured values from US20230348603A1 (VERSEAU THERAPEUTICS, published 2023).
Values belong to the binder of their own block, whether it stands above or below them.

How the values were obtained:
Human VSIG4-L-Fc [1] = molecular target: T1, Human VSIG4-L-Fc (human); assay: BLI binning on hVSIG4-L-Fc, competitor 13H11 first;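 also: normalized to binding of second antibody without first competitor antibody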
T1 construct: also called hVSIG4-L-Fc; hVSIG4-L

Human VSIG4-L-Fc [2] = molecular target: T1, Human VSIG4-L-Fc; assay: BLI binning on hVSIG4-L-Fc, competitor 15C03 first;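 also: normalized to binding of second antibody without first competitor antibody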
Human VSIG4-L-Fc [3] = molecular target: T1, Human VSIG4-L-Fc; assay: BLI binning on hVSIG4-L-Fc, competitor 16E03 first;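 also: normalized to binding of second antibody without first competitor antibody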
Human VSIG4-L-Fc [4] = molecular target: T1, Human VSIG4-L-Fc; assay: BLI binning on hVSIG4-L-Fc, competitor 15A06 first;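 also: normalized to binding of second antibody without first competitor antibody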
Human VSIG4-L-Fc [5] = molecular target: T1, Human VSIG4-L-Fc; assay: ligand blocking of iC3b, IgG
Human VSIG4-L-Fc [6] = molecular target: T1, Human VSIG4-L-Fc; assay: BLI binning on hVSIG4-L-Fc, competitor 15C04 first;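 also: normalized to binding of second antibody without first competitor antibody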
Human VSIG4-L-Fc [7] = molecular target: T1, Human VSIG4-L-Fc; assay: ligand competition ELISA (FJB), blocked ligand C3b
Human VSIG4-L-Fc [8] = molecular target: T1, Human VSIG4-L-Fc; assay: BLI binning on hVSIG4-L-Fc, competitor 12A08 first;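 also: normalized to binding of second antibody without first competitor antibody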
Human VSIG4-L-Fc [9] = molecular target: T1, Human VSIG4-L-Fc; assay: ligand competition ELISA (FJB), blocked ligand iC3b
Human VSIG4-L-Fc [10] = molecular target: T1, Human VSIG4-L-Fc; assay: BLI binning on hVSIG4-L-Fc, competitor 12A12 first;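 also: normalized to binding of second antibody without first competitor antibody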
[11] = molecular target: T2, Human VSIG4-L-CHO (human VSIG4 long isoform on CHO-K1 cells) (human, UniProt Q9Y279 20-399); assay: flow cytometry (FJB), 200 nM mAb, huVSIG4-L CHO-K1 cells
T2 construct: also called hVSIG4-L (flow cytometry)
T2 sequence: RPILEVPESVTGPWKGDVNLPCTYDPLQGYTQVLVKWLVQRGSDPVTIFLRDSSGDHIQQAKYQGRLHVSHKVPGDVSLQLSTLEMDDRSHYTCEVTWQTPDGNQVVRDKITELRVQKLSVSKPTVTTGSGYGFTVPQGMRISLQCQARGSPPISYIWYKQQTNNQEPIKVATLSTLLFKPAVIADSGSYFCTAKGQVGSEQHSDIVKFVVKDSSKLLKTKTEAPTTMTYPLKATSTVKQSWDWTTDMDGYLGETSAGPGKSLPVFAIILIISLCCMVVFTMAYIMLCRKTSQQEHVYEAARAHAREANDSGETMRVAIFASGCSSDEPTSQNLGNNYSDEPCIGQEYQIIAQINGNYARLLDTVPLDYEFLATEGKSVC

Human VSIG4-L-Fc [12] = molecular target: T1, Human VSIG4-L-Fc; assay: BLI binning on hVSIG4-L-Fc, competitor 14D12 first;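 also: normalized to binding of second antibody without first competitor antibody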
Human VSIG4-L-Fc [13] = molecular target: T1, Human VSIG4-L-Fc; assay: ligand blocking of C3b, IgG
Human VSIG4-L-Fc [14] = molecular target: T1, Human VSIG4-L-Fc; assay: BLI binning on hVSIG4-L-Fc, competitor 14C05 first;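 also: normalized to binding of second antibody without first competitor antibody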
[15] = molecular target: T2, Human VSIG4-L-CHO (human VSIG4 long …); assay: flow cytometry (FJB), 200 nM mAb, huVSIG4-L CHO-K1 over parental CHO-K1
[16] = molecular target: T2, Human VSIG4-L-CHO (human VSIG4 long …); assay: flow cytometry, CHO-K1 cells expressing hVSIG4-L
[17] = molecular target: T3, Cynomolgus Monkey VSIG4-L-His (cynomolgus monkey); assay: SPR (FJB)
T3 construct: ECD with His tag; also called cyVSIG4-L; cyno VSIG4-L-His
T3 chain: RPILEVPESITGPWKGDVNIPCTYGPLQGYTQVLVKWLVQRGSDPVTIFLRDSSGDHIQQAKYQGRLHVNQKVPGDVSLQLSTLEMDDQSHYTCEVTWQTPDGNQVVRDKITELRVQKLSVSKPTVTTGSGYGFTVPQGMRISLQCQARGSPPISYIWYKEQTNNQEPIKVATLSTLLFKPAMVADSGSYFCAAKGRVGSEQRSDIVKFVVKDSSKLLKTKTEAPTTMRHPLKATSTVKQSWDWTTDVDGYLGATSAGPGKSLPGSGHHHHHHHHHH

Human VSIG4-L-His [18] = molecular target: T4, Human VSIG4-L-His (human, UniProt Q9Y279 20-283); assay: SPR (FJB)
T4 construct: long isoform ECD with His tag; also called hVSIG4-L
T4 sequence: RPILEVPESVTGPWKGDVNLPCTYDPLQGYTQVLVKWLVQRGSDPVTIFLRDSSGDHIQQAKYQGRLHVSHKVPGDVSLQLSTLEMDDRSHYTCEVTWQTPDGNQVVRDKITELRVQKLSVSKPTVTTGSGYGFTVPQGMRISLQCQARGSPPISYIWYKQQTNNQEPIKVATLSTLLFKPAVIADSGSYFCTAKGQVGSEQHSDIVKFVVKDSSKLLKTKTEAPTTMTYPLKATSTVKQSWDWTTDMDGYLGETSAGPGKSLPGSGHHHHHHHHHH

[19] = molecular target: T3, Cynomolgus Monkey VSIG4-L-His; assay: BLI, IgG on AHC sensor, antigen 100 nM
Human VSIG4-L-His [20] = molecular target: T4, Human VSIG4-L-His; assay: BLI, IgG on AHC sensor, antigen 100 nM
Human VSIG4-L-Fc [21] = molecular target: T1, Human VSIG4-L-Fc; assay: BLI binning on hVSIG4-L-Fc, competitor 16E10 first;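 also: normalized to binding of second antibody without first competitor antibody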
Human VSIG4-S-His = molecular target: T5, Human VSIG4-S-His (human, UniProt Q9Y279 20-283); assay: BLI (Octet), IgG on AHC sensor, antigen 100 nM
T5 construct: short isoform ECD with His tag; also called hVSIG4-S; VISG4-S-His
T5 sequence: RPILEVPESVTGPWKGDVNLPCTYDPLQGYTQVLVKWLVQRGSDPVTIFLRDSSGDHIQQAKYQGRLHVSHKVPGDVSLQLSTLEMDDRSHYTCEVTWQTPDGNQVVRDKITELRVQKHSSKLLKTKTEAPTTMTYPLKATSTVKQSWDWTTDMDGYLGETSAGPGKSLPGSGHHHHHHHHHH

[22] = molecular target: T3, Cynomolgus Monkey VSIG4-L-His; assay: BLI (Octet), IgG on AHC sensor, antigen 100 nM
Human VSIG4-L-His [23] = molecular target: T4, Human VSIG4-L-His; assay: BLI (Octet), IgG on AHC sensor, antigen 100 nM
Mouse VSIG4-His = molecular target: T6, Mouse VSIG4-His (mouse); assay: ELISA, IgG 50 nM on coated antigen;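 also: Mouse-human chimeric IgG4 antibodies incubated 1 h on plate-coated VSIG4 proteins, bound IgG detected with HRP-labelled anti-human IgG, irrelevant antibody and protein as specificity controls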
T6 construct: ECD with His tag; also called mVSIG4
T6 chain: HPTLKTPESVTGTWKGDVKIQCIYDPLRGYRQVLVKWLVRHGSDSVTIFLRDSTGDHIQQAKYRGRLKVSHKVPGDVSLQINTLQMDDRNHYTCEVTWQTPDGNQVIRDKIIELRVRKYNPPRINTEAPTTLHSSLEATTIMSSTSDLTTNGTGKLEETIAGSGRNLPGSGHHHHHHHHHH

Human VSIG4-S-Fc = molecular target: T7, Human VSIG4-S-Fc (human); assay: ELISA, IgG 50 nM on coated antigen;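 also: Mouse-human chimeric IgG4 antibodies incubated 1 h on plate-coated VSIG4 proteins, bound IgG detected with HRP-labelled anti-human IgG, irrelevant antibody and protein as specificity controls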
T7 construct: short isoform ECD fused to human Fc1; also called hVSIG4-S

[24] = molecular target: T3, Cynomolgus Monkey VSIG4-L-His; assay: ELISA, IgG 50 nM on coated antigen;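 also: Mouse-human chimeric IgG4 antibodies incubated 1 h on plate-coated VSIG4 proteins, bound IgG detected with HRP-labelled anti-human IgG, irrelevant antibody and protein as specificity controls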
Human VSIG4-L-Fc [25] = molecular target: T1, Human VSIG4-L-Fc; assay: ELISA, IgG 50 nM on coated antigen;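 also: Mouse-human chimeric IgG4 antibodies incubated 1 h on plate-coated VSIG4 proteins, bound IgG detected with HRP-labelled anti-human IgG, irrelevant antibody and protein as specificity controls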

T7 sequence (chain, as listed by the source limits assumed): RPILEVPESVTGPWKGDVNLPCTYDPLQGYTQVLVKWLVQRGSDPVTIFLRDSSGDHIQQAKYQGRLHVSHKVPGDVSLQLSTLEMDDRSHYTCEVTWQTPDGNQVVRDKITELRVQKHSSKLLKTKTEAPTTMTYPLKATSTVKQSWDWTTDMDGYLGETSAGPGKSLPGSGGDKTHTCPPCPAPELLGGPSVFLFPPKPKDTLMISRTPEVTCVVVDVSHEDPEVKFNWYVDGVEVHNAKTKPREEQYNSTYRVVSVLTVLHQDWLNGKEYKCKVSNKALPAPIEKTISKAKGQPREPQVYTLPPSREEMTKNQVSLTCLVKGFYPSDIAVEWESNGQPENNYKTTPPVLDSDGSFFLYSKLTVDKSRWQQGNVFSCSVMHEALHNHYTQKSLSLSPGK

normalized maximum binding nm shift (Human VSIG4-L-Fc [1]): 0.65 normalized | normalized maximum binding nm shift (Human VSIG4-L-Fc [2]): 0.88 normalized | normalized maximum binding nm shift (Human VSIG4-L-Fc [3]): 0.1 normalized | normalized maximum binding nm shift (Human VSIG4-L-Fc [4]): 0.77 normalized | Percent Blocking iC3b (Human VSIG4-L-Fc [5]): 72% | normalized maximum binding nm shift (Human VSIG4-L-Fc [6]): 0.89 normalized | IC50 (Human VSIG4-L-Fc [7]): 0.7 nM | normalized maximum binding nm shift (Human VSIG4-L-Fc [8]): 0 normalized | IC50 (Human VSIG4-L-Fc [9]): 3.6 nM | normalized maximum binding nm shift (Human VSIG4-L-Fc [10]): 0.25 normalized | Binding (200 nM) MFI [11]: 14700 MFI | normalized maximum binding nm shift (Human VSIG4-L-Fc [12]): 0.69 normalized | Percent Blocking C3b (Human VSIG4-L-Fc [13]): 33% | normalized maximum binding nm shift (Human VSIG4-L-Fc [14]): 0.74 normalized | Binding (200 nM) Fold-Over-Parental [15]: 50 fold | EC50 [16]: 1 nM | Kd [17]: 1.3 nM | Kd (Human VSIG4-L-His [18]): 66.1 nM | KD relative to parental chimera [19]: 1 fold | KD relative to parental chimera (Human VSIG4-L-His [20]): 1 fold | normalized maximum binding nm shift (Human VSIG4-L-Fc [21]): 0.15 normalized | Kd (Human VSIG4-S-His): 75.3 nM | Kd [22]: 37.6 nM | Kd (Human VSIG4-L-His [23]): 68.5 nM | ELISA OD450 (Mouse VSIG4-His): 0.048 OD450 | ELISA OD450 (Human VSIG4-S-Fc): 2.04 OD450 | ELISA OD450 [24]: 4.5 OD450 | ELISA OD450 (Human VSIG4-L-Fc [25]): 4.44 OD450
B1: 16E10 mouse/human chimeric IgG4 (S228P) kappa (antibody, V domains shown)
VH: QVQLQQSGAELVRPGTSVKISCKASGYTFTNYWLGWVKQRPGHGLEWIGDIYPGGGYTNYNEKFKGKATLTADTSSSTAYMQLSSLTSEDSAVYFCAKFYYYGSSYYFDSWGQGTTLTVSS
VL: DIVLTQSPSSLSVSAGEKVTLSCKSSQSLLNSGNQENYLAWYQQKPGQPPKLLIYGASTRESGVPDRFTGSGSGTDFTLTISSVQAEDLAVYYCQNDHSYPLTFGAGTKLELKR

normalized maximum binding nm shift (Human VSIG4-L-Fc [1]): 0.68 normalized | normalized maximum binding nm shift (Human VSIG4-L-Fc [2]): 0.81 normalized | normalized maximum binding nm shift (Human VSIG4-L-Fc [3]): 0.74 normalized | normalized maximum binding nm shift (Human VSIG4-L-Fc [4]): 0.08 normalized | Percent Blocking iC3b (Human VSIG4-L-Fc [5]): 94% | normalized maximum binding nm shift (Human VSIG4-L-Fc [6]): 0.16 normalized | IC50 (Human VSIG4-L-Fc [7]): 19.7 nM | normalized maximum binding nm shift (Human VSIG4-L-Fc [8]): 0.8 normalized | IC50 (Human VSIG4-L-Fc [9]): 17 nM | normalized maximum binding nm shift (Human VSIG4-L-Fc [10]): 0.82 normalized | Binding (200 nM) MFI [11]: 53200 MFI | normalized maximum binding nm shift (Human VSIG4-L-Fc [12]): 0.72 normalized | Percent Blocking C3b (Human VSIG4-L-Fc [13]): 93% | normalized maximum binding nm shift (Human VSIG4-L-Fc [14]): 0.72 normalized | Binding (200 nM) Fold-Over-Parental [15]: 73 fold | EC50 [16]: 8.9 nM | Kd [17]: 15.6 nM | Kd (Human VSIG4-L-His [18]): 5.4 nM | normalized maximum binding nm shift (Human VSIG4-L-Fc [21]): 0.92 normalized | Kd [22]: 183 nM | Kd (Human VSIG4-L-His [23]): 25.4 nM | ELISA OD450 (Mouse VSIG4-His): 0.052 OD450 | ELISA OD450 (Human VSIG4-S-Fc): 3.28 OD450 | ELISA OD450 [24]: 4.53 OD450 | ELISA OD450 (Human VSIG4-L-Fc [25]): 4.43 OD450
B2: 15C04 mouse/human chimeric IgG4 (S228P) kappa (antibody, V domains shown)
VH: QIQLQESGPSLVRPSQTLSLTCSVTGDSITSGYWNWIRKFPGDKLEYLGYISYSGFTYYNPSLKSRISITRDTSKNQYYLQLNSVTTEDTATYYCASSYYGSSLGFPYWGQGTLVTVSA
VL: DVVMTQTPLSLPVSLGDQASISCRSSQSLVHSNGNTYLHWYLQKPGQSPKLLIYKVSNRFSGVPDRFSGSGSGTDFTLKISRVEAEDLGVYFCSQSTHVPWTFGGGTKLEIKR
